Reference: article PMC4847155 (Biochemical Journal, 2016)

Target: Bax (Homo sapiens, UniProt Q07812)
Format: biochemical
Details: 100 nM Bax, 10 μM compound or 20 nM cBid/Bim, no membranes, DSS

Chain of Bax (Q07812 whole entry): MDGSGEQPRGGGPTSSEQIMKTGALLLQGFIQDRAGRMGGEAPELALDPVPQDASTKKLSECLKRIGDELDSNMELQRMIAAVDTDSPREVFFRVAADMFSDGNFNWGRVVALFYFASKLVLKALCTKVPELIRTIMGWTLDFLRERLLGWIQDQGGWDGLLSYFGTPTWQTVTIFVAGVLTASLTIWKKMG

- formation of dimers and higher-order Bax oligomers in solution: no effects
B1: cBid: known Bax activator protein, pro-apoptotic BH3 protein, recombinant (protein, UniProt P55957 61-195, looked up)
BH3-interacting domain death …: GNRSSHSRLGRIEADSESQEDIIRNIARHLAQVGDSMDRSIPPGLVNGLALQLRNTSRSEEDRNRDLATALEQLLQAYPRDMEKEKTMLVLALLLAKKVASHTPSLLRDVFHTTVNFINQNLRTYVRSLARNGMD
modifications: BH3-interacting domain death agonist p15
